Data on 1 substance can be found in paper PMC4686714.

Broadly, the stoichiometry N is a count of units in the complex or per binding partner.

The assay concerns the target ENPP1-Fc fusion protein (not stated | not stated (human or mouse cDNA cloned)) (UniProt P22413). Kind of assay: SEC-MALS; SEC-MALLS/UV/RI, Superose 6 10/30 HR column, PBSplus buffer, 0.3 ml/min; ENPP1-Fc at 100 nM to 1 uM measured at the apex of the eluting peak; three detector approach. In general terms: In gel filtration, larger molecules generally elute earlier.

In turn, “ENPP1-Fc fusion protein (from UniProt P22413 98-925)” had a stoichiometry N of 2.
